Columns and labels:
PUM2 RNA-binding domain [1] = target: T1, PUM2 RNA-binding domain (Homo sapiens, UniProt Q8TB72 706-1059); test: competition EMSA
PUM2 RNA-binding domain [2] = target: T1, PUM2 RNA-binding domain; test: EMSA
PUM2 RNA-binding domain [3] = target: T1, PUM2 RNA-binding domain; test: EMSA; remark: listed apart in the source

T1 sequence (Q8TB72 706-1059): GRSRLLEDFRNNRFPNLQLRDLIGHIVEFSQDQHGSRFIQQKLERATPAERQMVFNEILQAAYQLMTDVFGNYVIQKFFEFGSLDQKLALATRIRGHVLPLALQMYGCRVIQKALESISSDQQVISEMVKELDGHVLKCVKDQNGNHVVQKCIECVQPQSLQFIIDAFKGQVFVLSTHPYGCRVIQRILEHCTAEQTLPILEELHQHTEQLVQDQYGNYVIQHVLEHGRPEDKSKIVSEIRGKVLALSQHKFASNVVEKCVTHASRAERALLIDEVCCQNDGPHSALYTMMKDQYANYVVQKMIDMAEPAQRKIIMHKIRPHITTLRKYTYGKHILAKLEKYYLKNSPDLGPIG

Binder	binding result (PUM2 RNA-binding domain [1])	also measured
UGUAGAUA (ssRNA) [8-mer 5G]	binds	–
UCUCUUUGUAUAUAUCUCUU (ssRNA) [S1a RNA]	–	binding result (PUM2 RNA-binding domain [2]): binds
CUUGUAUAUAG (ssRNA)	–	binding result (PUM2 RNA-binding domain [3]): binds
UGUAUAUA (ssRNA) [8-mer consensus]	binds	–
UGUAUAGA (ssRNA) [8-mer 7G]	binds	–
